We go through one molecule from PMC9524020 (2022).

Experiment in all cases: SPR
Assay [1] concerns the target FcγRIIIa-158V, FcγRIIIa-Monoantennae (human).
The target of assay [2] is FcγRIIIa-158V, FcγRIIIa-Hybrid (human).
Assay [3] concerns the target FcγRIIIa-158V, FcγRIIIa-Oligomannose (human).
Assay [4] has as its target FcγRIIIa-158V, FcγRIIIa-CHO^WT (human).
Assay [5] deals with FcγRIIIa-158V, FcγRIIIa-G2FS(2-6) (human).
The target in assay [6] is FcγRIIIa-158V, FcγRIIIa-Afucosylated (human).
Assay [7] addresses FcγRIIIa-158V, FcγRIIIa-HEK^WT (human).

FcγRIIIa-158V, FcγRIIIa-Monoantennae (human), sequence (chain, as listed by the source): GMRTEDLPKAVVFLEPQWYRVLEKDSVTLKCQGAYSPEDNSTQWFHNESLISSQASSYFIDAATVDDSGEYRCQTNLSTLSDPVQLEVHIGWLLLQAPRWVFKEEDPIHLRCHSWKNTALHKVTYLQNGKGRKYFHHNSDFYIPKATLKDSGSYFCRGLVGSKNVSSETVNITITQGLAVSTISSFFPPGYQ
FcγRIIIa-158V, FcγRIIIa-Oligomannose (human), sequence (chain, as listed by the source): as above
FcγRIIIa-158V, FcγRIIIa-Hybrid (human), sequence (chain, as listed by the source): as above
FcγRIIIa-158V, FcγRIIIa-CHO^WT (human), sequence (chain, as listed by the source): as above
FcγRIIIa-158V, FcγRIIIa-HEK^WT (human), sequence (chain, as listed by the source): as above
FcγRIIIa-158V, FcγRIIIa-G2FS(2-6) (human), sequence (chain, as listed by the source): as above
FcγRIIIa-158V, FcγRIIIa-Afucosylated (human), sequence (chain, as listed by the source): as above

B1: IgG1-CHO^WT (anti-rabies human IgG1 mAb SO57 from the CHO wildtype clone) (antibody)
chain 1: QVQLVQSGAEVKKPGSSVKVSCKASGGTFNRYTVNWVRQAPGQGLEWMGGIIPIFGTANYAQRFQGRLTITADESTSTAYMELSSLRSDDTAVYFCARENLDNSGTYYYFSGWFDPWGQGTLVTVSS
chain 2: QSALTQPRSVSGSPGQSVTISCTGTSSDIGGYNFVSWYQQHPGKAPKLMIYDATKRPSGVPDRFSGSKSGNTASLTISGLQAEDEADYYCCSYAGDYTPGVVFGGGTKLTVL
modifications: N-glycan at Asn297: dominant G0F glycans with small amounts of G1F
Broadly, the Kd is the constant that tells how readily two partners part at equilibrium. Regarding B1, the Kd came to 490 nM in assay [1]; 460 nM in assay [2]; 240 nM in assay [3]; 490 nM in assay [4]; 440 nM in assay [5]; 460 nM in assay [6]. This molecule also returned a Kd in assay [7] of 440 nM.
